Data on three molecules can be found in patent US20240325555A1 (LANOVA MEDICINES, published 2024).

Like-named read-outs stand apart in the source and are kept apart here.

Assay [1] concerns the target T1, human LIV-1 (human, UniProt Q13433 29-755).
T1 sequence (looked up): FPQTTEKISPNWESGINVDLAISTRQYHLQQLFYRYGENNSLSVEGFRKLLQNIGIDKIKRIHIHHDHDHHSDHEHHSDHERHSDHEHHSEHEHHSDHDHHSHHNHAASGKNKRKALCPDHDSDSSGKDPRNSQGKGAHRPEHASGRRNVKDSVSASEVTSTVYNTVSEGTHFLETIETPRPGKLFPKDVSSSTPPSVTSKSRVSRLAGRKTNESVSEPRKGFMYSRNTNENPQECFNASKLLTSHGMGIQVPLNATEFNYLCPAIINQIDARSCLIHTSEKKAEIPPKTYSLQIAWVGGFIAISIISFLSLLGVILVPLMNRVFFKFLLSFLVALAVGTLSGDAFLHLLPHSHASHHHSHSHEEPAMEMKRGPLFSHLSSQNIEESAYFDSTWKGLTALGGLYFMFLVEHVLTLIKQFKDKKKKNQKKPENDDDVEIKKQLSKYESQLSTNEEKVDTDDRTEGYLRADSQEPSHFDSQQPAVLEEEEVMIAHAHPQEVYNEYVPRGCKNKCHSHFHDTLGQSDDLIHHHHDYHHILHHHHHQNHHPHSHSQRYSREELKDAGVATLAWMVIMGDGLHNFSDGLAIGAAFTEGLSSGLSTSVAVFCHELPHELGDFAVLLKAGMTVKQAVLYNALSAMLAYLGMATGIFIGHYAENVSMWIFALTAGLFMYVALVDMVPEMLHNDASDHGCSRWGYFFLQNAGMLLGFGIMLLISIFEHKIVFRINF
Nature of the assay: cell-based or functional assay.

Assay [2] concerns the target T1, human LIV-1. Nature of the assay: cell-based or functional assay. The source holds these as a separate data set.
Assay [3] deals with T1, human LIV-1. The experiment in a line: cell-based or functional assay. The source holds these as a separate data set.
Assay [4] deals with T1, human LIV-1. The experiment in a line: FACS, HEK293/H_LIV-1 cells. In outline: (§1)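 HEK293 cells over-expressing human or cyno LIV-1 incubated with chimeric Abs (from 100 nM, 5-fold dilutions, 8 points) for 60 min at 4 °C, then fluorescent secondary antibody 30 min at 4 °C; washes in 2% FBS/PBS. Binding read by flow cytometry; EC50 from the titration curve.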
Background: In flow cytometry, cells or beads pass a laser one at a time.

The target of another assay is T2, rat LIV-1 (rat, UniProt Q4V887 21-741).
T2 construct: whole, on cells
T2 sequence (looked up): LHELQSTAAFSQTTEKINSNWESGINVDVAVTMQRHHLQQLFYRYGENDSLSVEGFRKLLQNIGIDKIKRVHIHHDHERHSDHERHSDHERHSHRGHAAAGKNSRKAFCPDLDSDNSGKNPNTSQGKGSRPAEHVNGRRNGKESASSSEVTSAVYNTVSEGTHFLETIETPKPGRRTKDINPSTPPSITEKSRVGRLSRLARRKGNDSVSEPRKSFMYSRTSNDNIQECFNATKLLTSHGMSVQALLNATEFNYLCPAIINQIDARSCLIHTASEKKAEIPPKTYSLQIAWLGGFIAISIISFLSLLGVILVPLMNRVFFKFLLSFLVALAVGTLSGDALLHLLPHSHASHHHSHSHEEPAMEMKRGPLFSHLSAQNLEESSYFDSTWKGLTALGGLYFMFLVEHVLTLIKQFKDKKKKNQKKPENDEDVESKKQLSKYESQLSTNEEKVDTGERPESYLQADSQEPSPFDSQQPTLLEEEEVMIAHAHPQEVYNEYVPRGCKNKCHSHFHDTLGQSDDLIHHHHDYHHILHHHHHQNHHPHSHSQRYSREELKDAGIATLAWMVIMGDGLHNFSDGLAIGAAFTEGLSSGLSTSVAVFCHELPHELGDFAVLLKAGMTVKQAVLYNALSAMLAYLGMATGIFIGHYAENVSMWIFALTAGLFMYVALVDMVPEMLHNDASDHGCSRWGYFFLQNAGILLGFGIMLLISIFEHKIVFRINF
The experiment in a line: FACS, HEK293/Rat_LIV-1 cells. The procedure: (§2) Humanized antibodies 5D6B10.z7, 124H4D11.p2.z4 and 290F10G10.p1.z2 were selected for further testing. In this example, FACS cross binding of these selected antibodies to LIV-1 of different species were assessed using flow cytometry.
(§3) Cell based binding of optimal leads to different species LIV-1 expressing cells were assessed using flow cytometry. Briefly, the cells were incubated with optimal leads (from 100 nM, 6 folds dilution, 8 points). After incubation at 4° C. for 60 minutes, the cells were washed with 2% FBS/PBS buffer twice, then stained with fluorescent conjugated secondary antibody at 4° C. for 30 minutes. After that the cells were washed twice and resuspended in 80 μL of 2% FBS/PBS buffer. Fluorescent signal of binding was detected using Agilent. The EC50 was calculated using the GraphPad Software (LaJolla, CA).

In the next assay the target is rhesus LIV-1 (rhesus, UniProt H9FSJ2 30-735). Nature of the assay: FACS, HEK293/Rhe_LIV-1 cells. The procedure: as §2, §3
Sequence of rhesus LIV-1 (H9FSJ2 entry or part of it): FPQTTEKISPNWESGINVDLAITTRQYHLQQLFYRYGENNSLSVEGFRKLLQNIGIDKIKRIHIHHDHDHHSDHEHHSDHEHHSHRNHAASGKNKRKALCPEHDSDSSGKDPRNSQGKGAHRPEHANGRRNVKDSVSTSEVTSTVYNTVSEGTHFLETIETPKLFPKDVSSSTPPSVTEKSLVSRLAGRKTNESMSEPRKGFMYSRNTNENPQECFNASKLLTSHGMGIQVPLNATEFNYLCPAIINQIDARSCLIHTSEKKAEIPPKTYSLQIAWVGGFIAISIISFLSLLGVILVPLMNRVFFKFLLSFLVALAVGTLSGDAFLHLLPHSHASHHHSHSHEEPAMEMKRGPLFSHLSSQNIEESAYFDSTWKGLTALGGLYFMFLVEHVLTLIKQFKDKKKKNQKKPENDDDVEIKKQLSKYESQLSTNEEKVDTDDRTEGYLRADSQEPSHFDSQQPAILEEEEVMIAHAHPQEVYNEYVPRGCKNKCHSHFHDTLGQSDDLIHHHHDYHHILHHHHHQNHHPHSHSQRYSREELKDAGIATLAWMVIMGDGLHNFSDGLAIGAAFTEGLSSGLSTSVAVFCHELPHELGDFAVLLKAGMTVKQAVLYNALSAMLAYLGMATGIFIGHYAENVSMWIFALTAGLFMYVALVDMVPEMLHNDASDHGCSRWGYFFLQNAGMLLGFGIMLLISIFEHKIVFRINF
The target of assay [5] is T3, cynomolgus LIV-1 (cynomolgus, UniProt A0A2K5WH46 30-741). The experiment in a line: FACS, HEK293/Cyno_LIV-1 cells. In outline:
as §1

Assay [6] addresses T3, cynomolgus LIV-1. Nature of the assay: FACS, HEK293/Cyno_LIV-1 cells. The procedure:
as §3
Target sequence in this assay (A0A2K5WH46 entry or part of it): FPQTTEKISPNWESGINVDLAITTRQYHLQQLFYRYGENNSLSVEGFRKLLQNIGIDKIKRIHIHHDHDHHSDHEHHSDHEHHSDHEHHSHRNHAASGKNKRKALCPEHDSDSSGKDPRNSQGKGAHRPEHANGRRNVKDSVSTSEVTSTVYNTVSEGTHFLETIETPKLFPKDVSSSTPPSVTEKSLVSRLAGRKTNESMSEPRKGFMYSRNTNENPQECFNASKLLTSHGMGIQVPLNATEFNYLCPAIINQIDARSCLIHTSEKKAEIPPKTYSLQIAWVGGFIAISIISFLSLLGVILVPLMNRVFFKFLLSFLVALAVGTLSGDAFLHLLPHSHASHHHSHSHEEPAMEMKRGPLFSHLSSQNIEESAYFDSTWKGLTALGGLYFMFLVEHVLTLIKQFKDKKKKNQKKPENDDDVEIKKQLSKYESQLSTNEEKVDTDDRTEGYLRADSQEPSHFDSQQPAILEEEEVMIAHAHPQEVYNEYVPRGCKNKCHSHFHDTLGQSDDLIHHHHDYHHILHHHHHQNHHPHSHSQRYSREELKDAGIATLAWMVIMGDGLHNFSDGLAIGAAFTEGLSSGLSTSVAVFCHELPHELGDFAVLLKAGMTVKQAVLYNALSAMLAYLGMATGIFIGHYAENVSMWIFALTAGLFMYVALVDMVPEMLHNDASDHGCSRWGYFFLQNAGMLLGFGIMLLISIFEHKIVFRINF
This is another data set of the same source.

For another assay, the target named is T4, mouse LIV-1 (mouse, UniProt Q8C145 21-765).
T4 construct: whole, on cells
T4 sequence (looked up): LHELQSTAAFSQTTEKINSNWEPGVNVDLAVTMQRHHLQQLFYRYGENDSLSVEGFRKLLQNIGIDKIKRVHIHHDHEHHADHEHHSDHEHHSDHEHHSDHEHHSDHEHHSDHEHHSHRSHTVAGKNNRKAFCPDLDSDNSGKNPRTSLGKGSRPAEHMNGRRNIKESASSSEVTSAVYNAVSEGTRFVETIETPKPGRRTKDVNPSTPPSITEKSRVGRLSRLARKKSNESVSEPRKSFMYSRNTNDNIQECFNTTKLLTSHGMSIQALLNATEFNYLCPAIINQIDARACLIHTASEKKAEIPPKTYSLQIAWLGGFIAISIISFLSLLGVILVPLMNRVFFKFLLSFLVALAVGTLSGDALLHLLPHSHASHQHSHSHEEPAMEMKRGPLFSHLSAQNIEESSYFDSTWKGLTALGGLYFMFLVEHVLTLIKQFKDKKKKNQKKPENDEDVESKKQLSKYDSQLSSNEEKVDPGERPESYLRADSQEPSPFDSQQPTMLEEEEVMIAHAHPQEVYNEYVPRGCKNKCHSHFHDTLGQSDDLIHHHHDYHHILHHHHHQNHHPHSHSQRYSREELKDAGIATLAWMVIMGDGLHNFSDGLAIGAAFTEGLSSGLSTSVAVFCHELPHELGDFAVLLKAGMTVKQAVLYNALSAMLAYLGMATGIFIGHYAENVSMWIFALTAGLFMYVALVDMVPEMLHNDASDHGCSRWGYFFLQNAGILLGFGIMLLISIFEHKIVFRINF
The experiment in a line: FACS, HEK293/Mouse_LIV-1 cells. The procedure:
as §2, §3

Assay [7] concerns the target T1, human LIV-1. Nature of the assay: cell-based or functional assay. This is another data set of the same source.
Assay [8] has as its target T1, human LIV-1. Nature of the assay: FACS, HEK293/H_LIV-1 cells. In outline: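 HEK293 cells expressing human LIV-1 incubated with humanized antibodies (from 100 nM, 6-fold dilutions, 8 points) at 4 °C for 60 min. Bound antibody detected with a fluorescent secondary antibody (4 °C, 30 min) by flow cytometry.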
This is another data set of the same source.

Assay [9] has as its target T1, human LIV-1. Nature of the assay: FACS, HEK293/H_LIV-1 cells. The procedure:
(§4) Cell based binding of ADC and naked of ADC on human LIV-1 expressing cells were assessed using flow cytometry. Briefly, HEK293/H_LIV-1, both low- and high-expressing H-LIV1-positive cell lines were incubated with ADC and naked of ADC (from 100 nM, 6 folds dilution, 8 points), respectively. After incubation at 4° C. for 60 minutes, the cells were washed with FACS buffer twice, then stained with fluorescent conjugated secondary antibody at 4° C. for 30 minutes. After that the cells were washed twice and analyzed by flow cytometry.
This is another data set of the same source.

The target of assay [10] is T1, human LIV-1. The experiment in a line: FACS, BT20/H_LIV-1 Low cells. As to the method:
as §4

Assay [11] has as its target T3, cynomolgus LIV-1. The experiment in a line: FACS, HEK293/Cyno_LIV-1 cells. This is another data set of the same source.
Target sequence in this assay (A0A2K5WH46 entry or part of it): as the sequence (A0A2K5WH46 entry or part of it) above
Assay [12] addresses T1, human LIV-1. The experiment in a line: FACS, BT20/H_LIV-1 High cells. As to the method: as §4

B1: 290F10G10 (antibody, V domains shown)
VH: IQLQQSGAELARPGASVKLSCKASGYTFTSYWIHWVKERPGQGLEWIGTIYPGDGDTRSTQKFKDKATVTAEKSSSTVYMQLSSLASEDSAVYYCTRSLIHDDYDKYYFDYWGQGTTLTVSS
VL: DIQMTQSPSSLSASLGGKVTITCKARQDINKYIAWYQHKPGKGPRLLIHYTSILQPGIPSRFSGSGSGRDYSFSISNLEPEDIATYYCLQYDYFFTFGSGTKLEIK
notes: Tested as chimeric antibody
By EC50 is commonly meant the concentration at which the effect is half-maximal. Lower therefore signals an effect from little substance. With B1, the “ADCC reporter EC50” value with human LIV-1 [1] was 0.4 nM. In the assay with human LIV-1 [1], the “ADCC reporter Top (RFU)” value is 177000 RFU. The “Internalization EC50” value with human LIV-1 [2] was 3.5 nM. The “Internalization Top (RFU)” value with human LIV-1 [2] worked out at 298000 RFU. Besides, in the assay with human LIV-1 [3], the “Cell viability(%)” value amounted to 3.46%. For the same molecule, in the assay with human LIV-1 [3], the “Cytotoxicity IC50” value stood at 1.33 nM. The EC50 with human LIV-1 [4] turned out to be 0.38 nM; with rat LIV-1 it was 72.2 nM; in the assay with rhesus LIV-1, 0.22 nM; in the assay with cynomolgus LIV-1 [5], 0.53 nM; with cynomolgus LIV-1 [6], 0.26 nM; with mouse LIV-1, 51.1 nM. The “Top (MFI)” value with human LIV-1 [4] is 9570 MFI; with rat LIV-1, 6820 MFI; in the assay with rhesus LIV-1, 5270 MFI; with cynomolgus LIV-1 [5] it was 2940 MFI; in the assay with cynomolgus LIV-1 [6] it was 1560 MFI; in the assay with mouse LIV-1 it was 5550 MFI.

B2: 5D6B10.Z7 (antibody, V domains shown)
VH: QVQLVQSGGGVVQPGRSLRLSCTVSGFSLTTYGIHWVRQSPGKGLEWLGVIWTGGTTDYNAAFISRLTISKDNSKSTVYFQMNSLQAEDTAIYYCARGPSSYWGQGTLVTVSS
VL: EIVMTQSPATLSVSPGERATLSCKASQNVDTNVVWYQQKPGQSPRALIYSASYRYSGVPARFSGSGSGTEFTLTISSLQSEDFAVYFCQQYNNYPWTFGQGTKVEIK
On to B2, for which the “Internalization EC50” value with human LIV-1 [7] stood at 5.7 nM. In the assay with human LIV-1 [7], the “Internalization Top (MFI)” value worked out at 59100 MFI. Besides, the EC50 with human LIV-1 [8] turned out to be 0.22 nM; with human LIV-1 [9], 0.69 nM; with rhesus LIV-1, 0.3 nM; in the assay with human LIV-1 [10] it was 0.51 nM; with cynomolgus LIV-1 [11], 0.19 nM; with cynomolgus LIV-1 [6], 0.55 nM. The molecule further gave an EC50 in the assay with human LIV-1 [12] of 1.06 nM. Moreover, the “Top (MFI)” value came out at 50700 MFI with human LIV-1 [8]; 102000 MFI with human LIV-1 [9]; 255 MFI with rat LIV-1; 41000 MFI with rhesus LIV-1; 34700 MFI with human LIV-1 [10]; 20400 MFI with cynomolgus LIV-1 [11]. Also, the “Top (MFI)” value in the assay with cynomolgus LIV-1 [6] was 13900 MFI; with human LIV-1 [12], 152000 MFI; in the assay with mouse LIV-1, 162 MFI. The binding result with rat LIV-1 and with mouse LIV-1 was “no binding (tested: 100 nM)” throughout.

B3: 124H4D11.p2.z4 (antibody, V domains shown)
VH: QVQLVQSGAEVVKPGASVKVSCKASGFNIKDYYMHWVRQAPGQGLEWIGWIDPENDDTEYDPKFQGRVTMTADTSTSTVYMELSSLRSEDTAVYYCAARYYAFDYWGQGTMVTVSS
VL: DVLMTQSPLSLPVTLGQPASISCRSSQSIVHSNANTYLEWYLQRPGQSPRLLIYKVSNRFSGVPDRFSGSGSGTDFTLKISRVEAEDVGVYYCFQGSQVPPTFGQGTKLEIK
Turning to B3, the “Internalization EC50” value with human LIV-1 [7] is 5.6 nM. Moreover, the “Internalization Top (MFI)” value in the assay with human LIV-1 [7] amounted to 139000 MFI. Moreover, the EC50 in the assay with human LIV-1 [8] was 0.13 nM; with human LIV-1 [9], 0.16 nM; in the assay with rhesus LIV-1, 0.07 nM; in the assay with human LIV-1 [10] it was 0.17 nM; in the assay with cynomolgus LIV-1 [11] it was 0.13 nM; with cynomolgus LIV-1 [6], 0.09 nM. In the assay with human LIV-1 [12], this molecule came in with a concentration giving a half-maximal response (EC50) of 0.15 nM. Further, the “Top (MFI)” value worked out at 16900 MFI in the assay with human LIV-1 [8]; 19900 MFI in the assay with human LIV-1 [9]; 106 MFI in the assay with rat LIV-1; 5420 MFI in the assay with rhesus LIV-1; 3460 MFI with human LIV-1 [10]; 8840 MFI with cynomolgus LIV-1 [11]. The “Top (MFI)” value with cynomolgus LIV-1 [6] amounted to 1420 MFI; with human LIV-1 [12] it was 20800 MFI; in the assay with mouse LIV-1, 107 MFI. Moreover, the binding result in the assay with rat LIV-1 and with mouse LIV-1 was “no binding (tested: 100 nM)” throughout.
